Measurements taken from paper PMC6279836, “The LPG1x family from Leishmania major is constituted of rare eukaryotic galactofuranosyltransferases with unprecedented catalytic properties” (Scientific Reports, 2018).

Columns and labels:
Assay in all cases: purified protein
Conditions in all cases: donor substrate; acceptor methyl alpha-D-mannopyranoside
[1] = system: O=c1ccn([C@@H]2O[C@H](COP(=O)(O)OP(=O)(O)O[C@H]3O[C@@H]([C@H](O)CO)[C@H](O)[C@H]3O)[C@@H](O)[C@H]2O)c(=O)[nH]1
[2] = system: O=c1ccn([C@@H]2O[C@H](COP(=O)(O)OP(=O)(O)O[C@H]3O[C@H](CO)[C@H](O)[C@H](O)[C@H]3O)[C@@H](O)[C@H]2O)c(=O)[nH]1
[3] = system: O=c1ccn([C@@H]2O[C@H](CO[P@@](=O)(O)O[P@@](=O)(O)O[C@H]3O[C@H](CO)[C@@H](O)[C@H](O)[C@H]3O)[C@@H](O)[C@H]2O)c(=O)[nH]1
[4] = system: Nc1nc2c(ncn2[C@@H]2O[C@H](COP(=O)(O)OP(=O)(O)O[C@H]3O[C@H](CO)[C@@H](O)[C@H](O)[C@@H]3O)[C@@H](O)[C@H]2O)c(=O)[nH]1
[5] = system: Nc1nc2c(ncn2[C@@H]2O[C@H](COP(=O)(O)OP(=O)(O)O[C@H]3O[C@H](CO)[C@@H](O)[C@H](O)[C@H]3O)[C@@H](O)[C@H]2O)c(=O)[nH]1

Substance	Km [1]	kcat [1]	kcat/Km [1]	Km [2]	kcat [2]	kcat/Km [2]	Km [3]	kcat [3]	kcat/Km [3]	Km [4]	kcat [4]	kcat/Km [4]	Km [5]	kcat [5]	kcat/Km [5]
LPG1 (Leishmania major)	70 ± 70 µM	512.5 ± 1.03 s⁻¹	6.83e+06 M⁻¹ s⁻¹	230 ± 20 µM	5.33 ± 0.367 s⁻¹	23300 M⁻¹ s⁻¹	–	–	–	–	–	–	–	–	–
LPG1G (Leishmania major)	30 ± 40 µM	205.9 ± 0.967 s⁻¹	6.56e+06 M⁻¹ s⁻¹	5 ± 1 µM	2.2 ± 0.167 s⁻¹	466000 M⁻¹ s⁻¹	–	–	–	–	–	–	–	–	–
LPG1L (Leishmania major)	20 ± 20 µM	88.3 ± 1.05 s⁻¹	4.85e+06 M⁻¹ s⁻¹	50 ± 10 µM	7.8 ± 0.833 s⁻¹	165000 M⁻¹ s⁻¹	6 ± 1 µM	3.42 ± 0.433 s⁻¹	578000 M⁻¹ s⁻¹	32 ± 5 µM	1.43 ± 0.1 s⁻¹	47700 M⁻¹ s⁻¹	43 ± 5 µM	0.4 ± 0.05 s⁻¹	8330 M⁻¹ s⁻¹
LPG1R (Leishmania major)	550 ± 680 µM	10.6 ± 1.27 s⁻¹	19100 M⁻¹ s⁻¹	–	–	–	38 ± 5 µM	5.05 ± 0.55 s⁻¹	133000 M⁻¹ s⁻¹	–	–	–	–	–	–
